In the supplement of paper PMC11908140:

B1: library; numbered along this chain (parent)
chain: MRKPRAAVGSGHRKQAASQEGRQKHAKNNSQAKPSACDGLARQPEEVVLQASVSSYHLFRDVAEVTAFRGSLLSWYDQEKRDLPWRRRAEDEMDLDRRAYAVWVSEVMLQQTQVATVINYYTGWMQKWPTLQDLASASLEEVNQLWAGLGYYSRGRRLQEGARKVVEELGGHMPRTAETLQQLLPGVGRYTAGAIASIAFGQATGVVDGNVARVLCRVRAIGADPSSTLVSQQLWGLAQQLVDPARPGDFNQAAMELGATVCTPQRPLCSQCPVESLCRARQRVEQEQLLASGSLSGSPDVEECAPNTGQCHLCLPPSEPWDQTLGVVNFPRKASRKPPREESSATCVLEQPGALGAQILLVQRPNSGLLAGLWEFPSVTWEPSEQLQRKALLQELQRWAGPLPATHLRHLGEVVHTFSHIKLTYQVYGLALEGQTPVTTVPPGARWLTQEEFHTAAVSTAMKKVFRVYQGQQPGTCMGSKRSQVSSPCSRKKPRMGQQVLDNFFRSHISTDAHSLNSAAQ

Variants of: B1
Assay: 8OG:A repair function score (normalized; synonymous = 0, nonsense = -1) (normalized log-likelihood score); higher = more repair activity (WT-like)
Details: with 8OG:A DNA repair reporter (GFP) in HEK-293 MUTYH KO cells
Method in brief: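 MUTYH knockout HEK-293 cells carrying lentiviral MUTYH cDNA NNN codon-scan libraries were grown with 10 pg/ml doxycycline and co-transfected with mCherry and a GFP reporter of 8OG:A repair. Viable mCherry+ cells were sorted at 72 h into GFP+ (repair) and GFP− bins, with three replicates per tile, and tile amplicons were sequenced. Rosace fitness scores for each tile were turned into a normalized repair function score anchored on the synonymous and nonsense distributions. Synonymous medians were set to 0 and nonsense medians to -1, and variants below 300 counts per million at the start were dropped.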

8OG:A repair function score: each site, then its substitutions
T406: M -0.199, V 0.013, P -0.287, I 0.313, R 0.0241, S -0.184, W -0.0828, A 0.32, E -0.17, L -0.249, Y -0.265, D 0.483, H 0.516, G -0.00238, N 0.0152, K 0.103, F -0.539, Q -0.294, C 0.13
A400: C -0.215, L -0.241, V -0.246, Q -0.0826, M 0.54, S -0.189, K -0.458, Y -0.116, F 0.262, G -0.0159, P -0.723, E -0.727, W -0.139, H 0.179, I -0.319, D -0.752, N -0.913, R -0.432, T -0.0197
H407: V 0.0608, I 0.0779, D 0.0493, Y -0.269, W -0.172, P -0.0456, T -0.107, N 0.205, M -0.456, Q 0.0383, G -0.0586, L -0.0178, E -0.226, S -0.109, K -0.104, F -0.245, A 0.245, C -0.123, R -0.0136
L403: W -0.318, C 0.158, M -0.0231, E -0.596, Q 0.0753, V 0.058, A -0.335, K -0.295, Y -0.513, G -0.509, T 0.0396, D -0.686, S -0.428, P -0.0649, N -0.0773, I 0.0162, F 0.0495, R -0.392
G401: Q -0.521, I -0.184, W -0.421, Y -0.393, P 0.0452, A -0.317, H -0.241, S -0.0552, M -0.302, K -0.582, N 0.111, C -0.381, E 0.191, L -0.214, D 0.0297, F -0.16, V -0.142, T -0.428, R -0.272
W399: Y 0.509
L408: Q -0.293, K -0.858, I 0.246, T -0.417, E -1.61, S -0.483, G -0.81, M -0.0275, P -0.461, C 0.18, D -0.946, A -0.717, F -0.529, R -0.839, H -1.11, N -0.893
P402: Q -0.236, I -0.0565, F -0.215, S -0.138, L -0.318, C -0.0435, T -0.26, V -0.0663, M 0.138, E -0.208, G -0.274, D 0.516, R -0.0808, W -0.534, N -0.282, Y -0.122, K -0.00401, A -0.0823
A405: S 0.0326, P 0.125, R 0.00307, I 0.0761, Q -0.0438, C 0.144, D -0.0995, F 0.0223, Y -0.204, V -0.00982, L -0.177, N -0.161, H -0.489, E 0.199, G -0.0383, W -0.606, T -0.128, K 0.0168, M -0.161
P404: V -0.000894, C -0.224, M 0.184, S -0.587, E 0.341, D -0.155, G -0.187, T -0.55, Y -0.119, F -0.272, L 0.0132, W -0.26, N 0.336, H 0.138, R 0.163, Q 0.15, K 0.298, A -0.142, I 0.118
